Reference: article PMC7730289

Key:
Test in all cases: flow cytometry
[1] = test system: CD63-negative HEK293T cells; conditions: PBS pH 7.4, 2.0 mM MgCl2, 0.02% Tween 20, 100 ug/mL salmon sperm DNA, ELISA 0.5 h, cells at RT 1 h (Methods) or 37 C 30 min (Results)
[2] = target: CD63 overexpressed on HEK293T cells (UniProt P08962); conditions: HEK293T/CD63 cells; PBS pH 7.4, 2.0 mM MgCl2, 0.02% Tween 20, 100 ug/mL salmon sperm DNA; ELISA 0.5 h; cells at RT 1 h (Methods) or 37 C 30 min (Results)
[3] = target: CD63 on MDA-MB-231 cells (UniProt P08962); conditions: MDA-MB-231 cells; PBS pH 7.4, 2.0 mM MgCl2, 0.02% Tween 20, 100 ug/mL salmon sperm DNA; ELISA 0.5 h; cells at RT 1 h (Methods) or 37 C 30 min (Results)
Sequence of CD63 on MDA-MB-231 cells (P08962 2-238): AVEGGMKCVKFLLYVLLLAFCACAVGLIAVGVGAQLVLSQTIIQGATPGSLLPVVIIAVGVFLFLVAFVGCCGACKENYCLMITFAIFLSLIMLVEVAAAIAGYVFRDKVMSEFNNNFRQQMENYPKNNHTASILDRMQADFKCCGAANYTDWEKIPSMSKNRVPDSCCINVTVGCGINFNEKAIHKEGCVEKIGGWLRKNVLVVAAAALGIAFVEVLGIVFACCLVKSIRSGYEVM

Sequence of CD63 overexpressed on HEK293T cells (P08962 whole entry): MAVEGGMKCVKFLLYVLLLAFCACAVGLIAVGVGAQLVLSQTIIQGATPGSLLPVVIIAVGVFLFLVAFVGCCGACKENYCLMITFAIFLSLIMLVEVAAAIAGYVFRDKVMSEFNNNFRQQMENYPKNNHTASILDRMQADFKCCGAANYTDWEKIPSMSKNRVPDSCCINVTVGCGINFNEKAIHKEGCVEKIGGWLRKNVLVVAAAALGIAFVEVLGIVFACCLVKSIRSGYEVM

Which Kd [1] does the source give for “TAACACGACAGACGTTCGGAGGTCGAACCCTGACAGCGTGGGC [CD63-1 FAM]” here?
Its Kd is over 1000 nM.

What about the Kd [2] of the same sequence?
Its Kd is 113 nM.

And the Kd [3]?
The Kd was 96.9 nM.
